Publication PMC9701186 (Nature Communications, 2022)

Columns and labels:
[1] = target: Aigai virus strain Pentalofos GP38 (Aigai virus, strain Pentalofos, UniProt A0A2P1JMM7, strain); test: BLI; […]; antibody (1 µg/mL) […] (AHC) sensors; […]; 300 s association, 600 s dissociation; global 1:1 fit; details: both partners purified
[2] = target: Aigai virus strain Pentalofos GP38 (Aigai virus, strain Pentalofos, UniProt A0A2P1JMM7, strain); test: BLI; […]; mAb (1 µg/mL) […] (AHC) sensors; […]; 1× Octet kinetics buffer; global 1:1 fit; details: both partners purified

B1: human chimeric 13G8 mAb (c13G8) (antibody, V domains shown)
VH: DVQLQQSGPGLVAPSQSLSITCTVSGFSLTNYGIHWVRQPPGKGLEWLGVIWAGGYTKYNSALMSRLSMSKDNSKSQVFLKMNSLQTDDTAMYYCARDEVRRDYYAMDHWGQGTTVTVSS
VL: DIQMTQSPAILSASPGEKVTMTCWASSGVSYMHWYQQKPGSSPKPWIFATSNLASGVPARFSGSGSGTSYSLTISRVEAEDAATYYCQQWSFNPLTFGAGTKLEIK
notes: copies: 2 + 2
**Q.** Does B1 bind [1]?
**A.** Result: no binding (tested: 100nM)

B2: human chimeric 13G8 mAb (c13G8) (antibody, V domains shown)
VH: DVQLQQSGPGLVAPSQSLSITCTVSGFSLTNYGIHWVRQPPGKGLEWLGVIWAGGYTKYNSALMSRLSMSKDNSKSQVFLKMNSLQTDDTAMYYCARDEVRRDYYAMDHWGQGTTVTVSS
VL: DIQMTQSPAILSASPGEKVTMTCWASSGVSYMHWYQQKPGSSPKPWIFATSNLASGVPARFSGSGSGTSYSLTISRVEAEDAATYYCQQWSFNPLTFGAGTKLEIK
notes: source: Expi293 cells, purified (mAb Select Sure column)
**Q.** Does B2 bind [2]?
**A.** Result: no binding (tested: up to 20.0 nM GP38)

B3: CC5-17 mAb (antibody, V domains shown)
VH: EVQLVQSGAEVKKPGESLRISCKGSGYSFTSYWIGWVRQMPGKGLEWMGIIYPGDSDTRYSPSFQGQVTISADKSISTAYLQWTSLKASDTAMYYCARQLGGSSFGNYYDSGSYYTAAYWGQGTLVTVSS
VL: DIQMTQSPSSLSASVGDRVTITCRASQSINNYLNWYQQKPGKAPKLLIYAASTLQSGVPSRFSGSGSGTDFTLTISSLQPEDFASYYCQQSYRGTFGQGTKVEFK
notes: copies: 2 + 2
**Q.** Does B3 bind [1]?
**A.** Result: no binding (tested: 100nM)

B4: CC5-17 mAb (antibody, V domains shown)
VH: EVQLVQSGAEVKKPGESLRISCKGSGYSFTSYWIGWVRQMPGKGLEWMGIIYPGDSDTRYSPSFQGQVTISADKSISTAYLQWTSLKASDTAMYYCARQLGGSSFGNYYDSGSYYTAAYWGQGTLVTVSS
VL: DIQMTQSPSSLSASVGDRVTITCRASQSINNYLNWYQQKPGKAPKLLIYAASTLQSGVPSRFSGSGSGTDFTLTISSLQPEDFASYYCQQSYRGTFGQGTKVEFK
**Q.** Does B4 bind [2]?
**A.** Result: no binding (tested: up to 20.0 nM GP38)
